For 3 molecules, binding result, EC50 and Kd results are on record in US20220153832A1 (PIONYR IMMUNOTHERAPEUTICS, published 2022).

The term EC50 denotes the concentration giving half of the maximal effect. The term Kd denotes the constant that tells how readily two partners part at equilibrium.

Assay [1] deals with T1, hVar3 (RG3036) (human, UniProt Q9UEW3 147-520).
T1 construct: Human MARCO His-CLD-SRCR with Q452D, Y472S and K473S (already in the entry); also called recombinant human SRCR MARCO hVar3 protein
The assay can be described thus: ELISA on hVar3. Background: An ELISA detects its analyte on a solid surface through an enzyme-linked reagent.

In assay [2] the target is T2, Human Macrophage Receptor with Collagenous Structure (MARCO), full length, on cells (human, UniProt Q9UEW3 1-520).
T2 construct: the cell type is named under assay; also called huMARCO; HuMARCO
T2 sequence: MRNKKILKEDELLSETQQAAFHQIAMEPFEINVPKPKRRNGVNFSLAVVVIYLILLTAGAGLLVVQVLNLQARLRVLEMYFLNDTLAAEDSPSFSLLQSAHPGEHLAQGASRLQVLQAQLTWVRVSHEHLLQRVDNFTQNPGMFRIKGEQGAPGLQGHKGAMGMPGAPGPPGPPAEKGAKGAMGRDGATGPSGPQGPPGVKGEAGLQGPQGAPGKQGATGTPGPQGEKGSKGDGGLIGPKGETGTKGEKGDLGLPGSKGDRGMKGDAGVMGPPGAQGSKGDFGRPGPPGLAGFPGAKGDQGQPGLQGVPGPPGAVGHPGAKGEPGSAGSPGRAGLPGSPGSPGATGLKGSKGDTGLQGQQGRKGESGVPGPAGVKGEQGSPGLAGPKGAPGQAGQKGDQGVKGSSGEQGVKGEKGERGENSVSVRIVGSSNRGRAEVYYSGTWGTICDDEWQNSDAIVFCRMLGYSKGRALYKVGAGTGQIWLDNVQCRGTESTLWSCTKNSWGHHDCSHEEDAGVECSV
Kind of assay: flow cytometry, cells overexpressing human MARCO. The procedure:
Supernatants were removed and cell pellets were resuspended in Ca²⁺+ and Mg²⁺+ Dulbecco's phosphate-buffered saline (D-PBS) at 1×10⁶ cells/ml. 100,000 cells/well were plated onto U-bottom 96-well plates for staining and all centrifugation steps were performed at 1500 rpm at 4° C. for 5 min and samples were kept protected from light throughout the protocol. Cells were pelleted and resuspended in 100 μl of Zombie NIR viability dye (BioLegend) prepared by diluting Zombie NIR dimethyl sulfoxide (DMSO) stock 1000-fold in D-PBS. Cells were stained by incubation for 10 min at room temperature (RT) in the dark, followed by quenching the staining reaction with the addition of 100 μl of Staining Medium (D-PBS containing 2% FBS and 2 mM ethylenediaminetetraacetic acid (EDTA). Cells were pelleted and resuspended in 100 μl of the different antibodies and hybridomas supernatants needed for screening and corresponding isotype controls in freshly prepared staining medium, such as PI-M014 and mIgG2b isotype. All mAbs were tested at the final top concentration of 100 nM (15 μg/ml) followed by an 8-point three-fold serial dilution, including 0 mg/ml control. Staining was carried out for 1 hour (hr) on ice, followed by 2 washes in Staining Medium. Cells were then pelleted and resuspended in 100 μl of allophycocyanin (APC)-conjugated goat anti-mouse IgG (Fc-specific) secondary antibody, prepared by 500-fold dilution of the antibody stocks in Staining Medium, and incubated for 30 min on ice. […] Flow cytometry data were analyzed using FlowJo software (version 10.6.1) and data were processed and further analyzed in Microsoft Excel and GraphPad Prism software (version 8). Half-maximal effective concentrations (EC₅₀) were calculated based on geometric mean fluorescence intensities (gMFI). In case when the plates were not able to be analyzed on the cytometer, cells were pelleted after the washes and fixed in 100 μl of 2% paraformaldehyde (PFA), prepared by diluting the 16% (w/v) stock (Thermo Fisher) in DPBS, for 15 min at RT. […]
For orientation: A flow cytometer gives signals particle by particle.

The target in assay [3] is T3, N-terminally polyhistidine tagged human MARCO ECD (147-520), recombinant (human, UniProt Q9UEW3 147-520).
T3 construct: also called PI-RG-3000; recombinant human MARCO; not shown: N-terminal polyhistidine tag
T3 sequence: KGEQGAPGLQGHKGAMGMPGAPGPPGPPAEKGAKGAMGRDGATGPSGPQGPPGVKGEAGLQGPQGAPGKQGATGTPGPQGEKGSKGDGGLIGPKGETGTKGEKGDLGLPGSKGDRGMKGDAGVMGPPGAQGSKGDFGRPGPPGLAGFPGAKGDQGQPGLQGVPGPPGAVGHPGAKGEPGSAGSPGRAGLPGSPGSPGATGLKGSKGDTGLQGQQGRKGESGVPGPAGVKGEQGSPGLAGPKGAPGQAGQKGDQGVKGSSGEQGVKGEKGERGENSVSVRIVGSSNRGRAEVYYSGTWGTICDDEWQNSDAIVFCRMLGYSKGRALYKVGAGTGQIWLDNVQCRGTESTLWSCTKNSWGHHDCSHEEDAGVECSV
The assay can be described thus: Biacore; sample oxidized with 1 mM AAPH, 6 hrs, 40 C. The procedure:
(PBS)+1 mM AAPH for 6 h, 0.5 and 1.5% H₂O₂ in PBS for 24 h, which was compared to a previous experiment at 40° C. (PBS)+1 mM AAPH for 6 h. Post treatment the samples were analyzed by LC-MS/MS which identified the % modification on isolated peptides derived from the antibody after trypsin digest.
Binding of the stressed samples to recombinant human MARCO was assessed by Biacore.
For orientation: SPR reads the build-up and loss of mass on a sensor chip optically.

For assay [4], the target named is T4, Cynomolgus MARCO, full length, on cells (cynomolgus, UniProt A0A2K5X0Z2 1-519).
T4 construct: whole, on cells; also called cyno MARCO; CyMARCO
T4 sequence: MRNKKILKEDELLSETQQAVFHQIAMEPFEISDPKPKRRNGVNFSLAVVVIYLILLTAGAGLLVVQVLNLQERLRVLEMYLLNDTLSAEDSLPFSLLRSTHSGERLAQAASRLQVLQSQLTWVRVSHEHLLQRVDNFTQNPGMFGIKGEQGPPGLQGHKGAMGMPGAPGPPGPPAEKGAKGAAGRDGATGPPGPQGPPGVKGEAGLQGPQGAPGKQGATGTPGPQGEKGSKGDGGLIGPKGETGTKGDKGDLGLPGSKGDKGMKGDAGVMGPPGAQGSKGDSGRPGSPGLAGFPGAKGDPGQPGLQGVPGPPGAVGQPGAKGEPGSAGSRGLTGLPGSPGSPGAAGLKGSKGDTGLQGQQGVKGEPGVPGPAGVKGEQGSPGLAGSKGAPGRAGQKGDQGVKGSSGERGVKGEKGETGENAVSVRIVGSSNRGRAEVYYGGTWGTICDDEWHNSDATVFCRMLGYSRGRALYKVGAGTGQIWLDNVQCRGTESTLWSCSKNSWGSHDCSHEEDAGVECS
The assay can be described thus: flow cytometry, 293T (CyMARCO). On the procedure:
Supernatants were removed and cell pellets were resuspended in Ca²⁺+ and Mg²⁺+ Dulbecco's phosphate-buffered saline (D-PBS) at 1×10⁶ cells/ml. 100,000 cells/well were plated onto U-bottom 96-well plates for staining and all centrifugation steps were performed at 1500 rpm at 4° C. for 5 min and samples were kept protected from light throughout the protocol. Cells were pelleted and resuspended in 100 μl of Zombie NIR viability dye (BioLegend) prepared by diluting Zombie NIR dimethyl sulfoxide (DMSO) stock 1000-fold in D-PBS. […] Flow cytometry data were analyzed using FlowJo software (version 10.6.1) and data were processed and further analyzed in Microsoft Excel and GraphPad Prism software (version 8). Half-maximal effective concentrations (EC₅₀) were calculated based on geometric mean fluorescence intensities (gMFI). In case when the plates were not able to be analyzed on the cytometer, cells were pelleted after the washes and fixed in 100 μl of 2% paraformaldehyde (PFA), prepared by diluting the 16% (w/v) stock (Thermo Fisher) in DPBS, for 15 min at RT. […]

B1: PI-3010-AB (antibody, human IgG1, kappa)
heavy: not shown
light: DIQMTQSPASLSTSLGETVSIECLASEGISNDLAWYQQKSGKSPQLLIYAASRLQDGVPSRFSGSGSGTRYSLKISGMQPEDEADYFCQQSYKYPLTFGSGTKLEIKRTVAAPSVFIFPPSDEQLKSGTASVVCLLNNFYPREAKVQWKVDNALQSGNSQESVTEQDSKDSTYSLSSTLTLSKADYEKHKVYACEVTHQGLSSPVTKSFNRGEC
In the case of B1, the binding result in assay [1] is given as “no binding”. For the same molecule, the EC50 in assay [2] is 680 pM.

B2: PI-3015-AB (antibody, human IgG1, kappa)
heavy: not shown
light: DIQMTQSPSSLSASVGDRVTITCRASEGISNDLAWYQQKPGKAPKLLIYAASRLQSGVPSRFSGSGSGTDYTLTISSMQPEDFATYYCQQSYKYPLTFGQGTKLEIKRTVAAPSVFIFPPSDEQLKSGTASVVCLLNNFYPREAKVQWKVDNALQSGNSQESVTEQDSKDSTYSLSSTLTLSKADYEKHKVYACEVTHQGLSSPVTKSFNRGEC
With B2, in assay [3], the Kd turned out to be 1100 pM.

B3: PI-HX-3031 (antibody)
heavy: QVQLKESGPGLVQPSQTLSLTCTVSGFSLTSYHVSWVRQPPGKGLEWMGAIWTGGSIAYNSLLKSRLSISRDTSKSQVFLKMNSLQTEDTATYYCARDLSDYYSSYTSFDYWGQGVMVTVSTAETTAPSVYPLAPGTALKSNSMVTLGCLVKGYFPEPVTVTWNSGALSSGVHTFPAVLQSGLYTLTSSVTVPSSTWSSQAVTCNVAHPASSTKVDKKIVPRECNPCGCTGSEVSSVFIFPPKTKDVLTITLTPKVTCVVVDISQNDPEVRFSWFIDDVEVHTAQTHAPEKQSNSTLRSVSELPIVHRDWLNGKTFKCKVNSGAFPAPIEKSISKPEGTPRGPQVYTMAPPKEEMTQSQVSITCMVKGFYPPDIYTEWKMNGQPQENYKNTPPTMDTDGSYFLYSKLNVKKETWQQGNTFTCSVLHEGLHNHHTEKSLSHSP
light: DIQMTQSPASLSTSLGETVSIECLASEGISNDLAWYQQKSGKSPQLLIYAASRLQDGVPSRFSGSGSGTRYSLKISGMQPEDEADYFCQQSYKYPLTFGSGTKLEIKRADAAPTVSIFPPSTEQLATGGASVVCLMNNFYPRDISVKWKIDGTERRDGVLDSVTDQDSKDSTYSMSSTLSLTKADYESHNLYTCEVVHKTSSSPVVKSFNRNEC
notes: Parental rat hybridoma, rat IgG2a
B3 showed an EC50 in assay [4] of 510 pM.
